Source: patent US20230111363A1 (LMMUNOMETABOLISM DEVELOPMENT, published 2023)
Where a chain is given by its changes, count along the chain named. In names and notes the source's numbering stands.

T1: human monocarboxylate transporter 1 (MCT1) (human, UniProt P53985 1-500)
T1 construct: Multi-pass transmembrane transporter, endogenous on HEK WT / HEK293T cells and on primary human T and B cells in the assays; also called human MCT1; SLC16A1
T1 sequence: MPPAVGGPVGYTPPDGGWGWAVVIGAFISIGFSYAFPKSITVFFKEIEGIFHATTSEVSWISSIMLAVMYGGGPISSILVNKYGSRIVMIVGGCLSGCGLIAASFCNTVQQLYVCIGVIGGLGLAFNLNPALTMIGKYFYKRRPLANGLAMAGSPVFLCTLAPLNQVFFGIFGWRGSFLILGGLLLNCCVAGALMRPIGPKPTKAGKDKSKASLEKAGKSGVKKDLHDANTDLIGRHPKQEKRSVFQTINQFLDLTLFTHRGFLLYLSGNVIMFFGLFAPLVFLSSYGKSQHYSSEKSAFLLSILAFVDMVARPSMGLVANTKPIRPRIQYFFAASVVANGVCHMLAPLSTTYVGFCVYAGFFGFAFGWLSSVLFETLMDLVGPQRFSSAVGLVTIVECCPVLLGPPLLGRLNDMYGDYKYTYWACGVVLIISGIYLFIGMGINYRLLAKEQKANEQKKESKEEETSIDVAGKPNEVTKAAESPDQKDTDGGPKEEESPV

B1: anti-human MCT1 antibody Ab3 (antibody, human IgG1, kappa, V domains shown)
VH: EVQLVESGGGLVQPGGSLRLSCTVSGFSLTNYHLQWVRQAPGKGLEWVGFIRSSGNTEYNSEFKSRFTISRDDSKNSLYLQMNSLKTEDTAVYYCARNSWYHGTYYSPGYYVMDAWGQGTLVTVSS
VL: DIQMTQSPSTLSASVGDRVTITCKGSQNINNYLAWYQQKPGKAPKLLIYNRHNLQTGVPSRFSGSGSGTEFTLTISSLQPDDFATYYCYQYSDGYTFGGGTKVEIKR
notes: IgG1EN backbone
B2: anti-human MCT1 antibody Ab5 (antibody, human IgG1, kappa, V domains shown)
VH: EVQLVQSGAEVKKPGESLKISCTVSGFSLTNYHLQWVRQMPGKGLEWMGFIRSSGNTEYNSEFKSQVTISADKSISTAYLQWSSLKASDTAMYYCARNSWYHGTYYSPGYYVMDAWGQGTLVTVSS
VL: B1 VL with T10S, E70D, D81E
notes: IgG1EN backbone
B3: anti-human MCT1 antibody Ab4 (antibody, human IgG1, kappa, V domains shown)
VH: B1 VH with Q13K, S77T
VL: B1 VL with T10S, E70D, D81E
notes: IgG1EN backbone
B4: INX444 IgG1EN (antibody)
heavy: QVQLKESGPGLVKPSQTLSLTCTVSGFSLTNYHLQWVRQPPGKGLEWIGFIRSSGNTEYNPSLKSRVTISRDTSKNQVSLKLSSVTAADTAVYYCARKRWVHGTWYSPGYYVMDAWGQGTLVTVSSASTKGPSVFPLAPSSKSTSGGTAALGCLVKDYFPEPVTVSWNSGALTSGVHTFPAVLQSSGLYSLSSVVTVPSSSLGTQTYICNVNHKPSNTKVDKRVEPKSCDKTHTCPPCPAPEAEGAPSVFLFPPKPKDTLMISRTPEVTCVVVDVSHEDPEVKFNWYVDGVEVHNAKTKPREEQYNSTYRVVSVLTVLHQDWLNGKEYKCKVSNKALPSSIEKTISKAKGQPREPQVYTLPPSREEMTKNQVSLTCLVKGFYPSDIAVEWESNGQPENNYKTTPPVLDSDGSFFLYSKLTVDKSRWQQGNVFSCSVMHEALHNHYTQKSLSLSPGK
light: DIQLTQSPSAMSASVGDRVTITCRASQGISNYLAWYQQKPGKAPKLLIYAASTLQSGVASRFSGRGSGTDFTLTISSLQPEDFATYYCQQSDILPYTFGQGTKVEIKRTVAAPSVFIFPPSDEQLKSGTASVVCLLNNFYPREAKVQWKVDNALQSGNSQESVTEQDSKDSTYSLSSTLTLSKADYEKHKVYACEVTHQGLSSPVTKSFNRGEC
notes: INX444 of WO19136300 converted to the IgG1EN backbone (L234A, L235E, G237A, A330S, P331S, EU numbering)
B5: anti-human MCT1 antibody Ab1 (antibody, human IgG1, kappa, V domains shown)
VH: QVQLVQSGAEVKKPGASVKVSCTVSGFSLTNYHLQWVRQAPGQGLEWMGFIRSSGNTEYNSEFKSRVTMTRDTSTSTVYMELSSLRSEDTAVYYCARNSWYHGTYYSPGYYVMDAWGQGTLVTVSS
VL: EIVLTQSPGTLSLSPGERATLSCKGSQNINNYLAWYQQKPGQAPRLLIYNRHNLQTGIPDRFSGSGSGTDFTLTISRLEPEDFAVYYCYQYSDGYTFGGGTKVEIKR
notes: human IgG1 effector null (IgG1EN) backbone; also called humanized Framework antibody Ab1
B6: anti-human MCT1 antibody Ab2 (antibody, human IgG1, kappa, V domains shown)
VH: B5 VH
VL: B1 VL
notes: IgG1EN backbone
B7: anti-human MCT1 antibody Ab6 (antibody, human IgG1, kappa)
heavy: QVQLVQSGAEVKKPGASVKVSCTVSGRSLTNYHLQWVRQAPGQGLEWMGFIRSSGNTEYNSRFKSRVTMTRDTSTSTVYMELSSLRSEDTAVYYCARNRWYHGTYYSPGYYVMDAWGQGTLVTVSSASTKGPSVFPLAPSSKSTSGGTAALGCLVKDYFPEPVTVSWNSGALTSGVHTFPAVLQSSGLYSLSSVVTVPSSSLGTQTYICNVNHKPSNTKVDKRVEPKSCDKTHTCPPCPAPEAEGAPSVFLFPPKPKDTLMISRTPEVTCVVVDVSHEDPEVKFNWYVDGVEVHNAKTKPREEQYNSTYRVVSVLTVLHQDWLNGKEYKCKVSNKALPSSIEKTISKAKGQPREPQVYTLPPSREEMTKNQVSLTCLVKGFYPSDIAVEWESNGQPENNYKTTPPVLDSDGSFFLYSKLTVDKSRWQQGNVFSCSVMHEALHNHYTQKSLSLSPGK
light: EIVLTQSPGTLSLSPGERATLSCKGSQNIENYLAWYQQKPGQAPRLLIYNRHNLQTGIPDRFSGSGSGTDFTLTISRLEPEDFAVYYCYQYSDGYTFGGGTKVEIKRTVAAPSVFIFPPSDEQLKSGTASVVCLLNNFYPREAKVQWKVDNALQSGNSQESVTEQDSKDSTYSLSSTLTLSKADYEKHKVYACEVTHQGLSSPVTKSFNRGEC
notes: IgG1EN backbone
B8: anti-human MCT1 antibody Ab21 (antibody, human IgG1, kappa, V domains shown)
VH: B5 VH with F27R, S99R, A115P
VL: B5 VL
notes: IgG1EN backbone
B9: anti-human MCT1 antibody Ab20 (antibody, human IgG1, kappa, V domains shown)
VH: B5 VH with F27R, S99L
VL: B5 VL
notes: IgG1EN backbone
B10: anti-human MCT1 antibody Ab19 (antibody, human IgG1, kappa, V domains shown)
VH: B5 VH with F27R, S53R, S99R
VL: B5 VL with N30E
notes: IgG1EN backbone

Tests used:
[1] = biological target: T1, human monocarboxylate transporter 1 …; assay: cell-based MCT1 binding
[2] = biological target: T2, human FcγRI (CD64) extracellular domain (human, UniProt P12314 16-292); assay: SPR (Biacore T100), antibody captured on Protein A, FcγR ECD as analyte, 25 C
T2 construct: extracellular domain; also called FcγRI ECD
Method: Unreacted sites were blocked with a 7 minute injection of ethanolamine at 10 μL/minute. […] FC1 was the reference FC, therefore no antibody was captured in FC1. […] Regeneration was performed by injecting 15 μL of 10 mM glycine, pH 1.5, at 30 μL/minute over all FCs. […] The affinity (KD) was calculated using either steady state equilibrium analysis with the Scrubber 2 Biacore Evaluation Software or a “1:1 (Langmuir) binding” model in BIA Evaluation. […] Duplicate injections of each concentration were injected over all FCs at 40 μL/minute for 60 seconds followed by a 120 second dissociation phase. […] The affinity (KD) was calculated using the steady state equilibrium analysis with the Scrubber 2 Biacore Evaluation Software.

[3] = biological target: T1, human monocarboxylate transporter 1 …; assay: cell-based or functional assay
[4] = biological target: T1, human monocarboxylate transporter 1 …; assay: cell-based or functional assay; remark: listed apart in the source
[5] = biological target: T1, human monocarboxylate transporter 1 …; assay: competition MSD binding assay, antibody titrated with HEK WT cells expressing MCT1, apparent KD, screening at 25 C
Method: The mix was incubated at 37° C. for 1-2 days. After incubation, the incubated samples were spun down for 5 min at 500×g to remove cells. A 96-well multi-array plate (Meso Scale Diagnostics, Cat. #L15XA-3) was coated at 4° C. overnight with 1 μg/mL of goat anti human FC in phosphate buffered saline (PBS). Following coating, plates were washed 3 times with 150 μL PBST (PBS with 0.05% Tween 20) and blocked with 150 μL/well of PBS 3% blocker A buffer (Cat #R93BA-1) at 25° C. for 1 hr. Plates were then washed 3 times with PBST. 50 μL of the preincubated antibody: cell dilution series was transferred to the wells and incubated at 25° C. with 700 rpm shaking for 1 hr. Plates were washed 3 times with PBST. Then 100 μL of 1 μg/mL anti-human kappa-biotin antibody (Cat. #2060-08) was added, and plates were incubated at 25° C. with 700 rpm shaking […]. Plates were washed 3 times with PBST, followed by addition of 100 μL of 1 μg/mL MSD Sulfo-tag streptavidin antibody (Meso Scale Diagnostics Cat. #R32 AD1), and plates were incubated at 25° C. with 700 rpm shaking for 1 hr. Plates were washed 3 times with PBST, 150 μL/well of 1× Read Buffer T was added to the wells and analyzed on a SECTOR® Imager 6000 (Meso Scale Diagnostics) 15 min after buffer addition. The apparent KD is determined by fitting a sigmoidal curve to the electrochemiluminescence (ECL) response vs. log (MCT1 receptor concentration) using assay development tool kit graphed with normalized ECL values.

[6] = biological target: T1, human monocarboxylate transporter 1 …; assay: competition MSD binding assay, antibody titrated with HEK WT cells expressing MCT1, apparent KD, 37 C, average of triplicate
Text: Plates were then washed 3 times with PBST. […] Plates were washed 3 times with PBST.

[7] = biological target: T1, human monocarboxylate transporter 1 …; assay: cell-based or functional assay; remark: listed apart in the source
Human C1q = biological target: T3, Human C1q (human, UniProt P02745 23-245; P02746 28-253; P02747 29-245); assay: ELISA, antibody coated on plate, human C1q detected with anti-human C1q-HRP (results not shown)
T3 construct: Bought (MS Biomedical); also called complement component C1q
T3 sequence (P02745 23-245 limits assumed, chain 1 of 3): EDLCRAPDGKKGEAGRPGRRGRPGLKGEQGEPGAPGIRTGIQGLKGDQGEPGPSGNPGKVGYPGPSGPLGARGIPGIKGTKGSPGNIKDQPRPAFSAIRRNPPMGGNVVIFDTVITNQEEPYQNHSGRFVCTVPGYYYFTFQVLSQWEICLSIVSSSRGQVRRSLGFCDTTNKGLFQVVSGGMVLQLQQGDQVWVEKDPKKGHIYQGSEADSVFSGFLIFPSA
T3 sequence (P02746 28-253 limits assumed, chain 2 of 3): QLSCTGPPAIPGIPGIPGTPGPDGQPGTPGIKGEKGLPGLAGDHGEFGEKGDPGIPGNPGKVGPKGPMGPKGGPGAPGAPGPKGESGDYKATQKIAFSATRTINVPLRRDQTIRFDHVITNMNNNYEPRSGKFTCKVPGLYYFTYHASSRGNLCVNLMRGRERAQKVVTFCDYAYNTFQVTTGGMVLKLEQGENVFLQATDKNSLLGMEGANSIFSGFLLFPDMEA
T3 sequence (P02747 29-245 limits assumed, chain 3 of 3): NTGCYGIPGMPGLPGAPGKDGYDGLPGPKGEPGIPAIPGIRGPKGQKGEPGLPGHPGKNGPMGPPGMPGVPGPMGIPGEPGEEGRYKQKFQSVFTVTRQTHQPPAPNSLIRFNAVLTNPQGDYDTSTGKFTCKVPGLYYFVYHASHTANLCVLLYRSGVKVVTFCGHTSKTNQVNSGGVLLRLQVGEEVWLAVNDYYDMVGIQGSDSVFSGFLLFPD

T2 sequence (P12314 16-292): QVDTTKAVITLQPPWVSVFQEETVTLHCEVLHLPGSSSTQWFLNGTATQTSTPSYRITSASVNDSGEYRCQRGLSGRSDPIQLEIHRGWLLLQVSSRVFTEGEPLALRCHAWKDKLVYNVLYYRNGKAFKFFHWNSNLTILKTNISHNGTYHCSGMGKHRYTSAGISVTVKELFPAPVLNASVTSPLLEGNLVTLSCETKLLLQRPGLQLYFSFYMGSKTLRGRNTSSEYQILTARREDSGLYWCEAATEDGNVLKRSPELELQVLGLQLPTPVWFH

| Binder | binding result [1] | IC50 of inhibition of MCT1 mediated transport (bromopyruvate assay, HEK293T cells) [3] | IC50 of inhibition of CD4 T cell proliferation [4] | IC50 of inhibition of CD8 T cell proliferation [4] | Kd [5] | also measured |
| --- | --- | --- | --- | --- | --- | --- |
| B1 | binds |  |  |  |  |  |
| B2 | binds |  |  |  |  |  |
| B3 | binds |  |  |  |  |  |
| B4 |  |  |  |  |  | binding result [2]: no binding (tested: 200 nM) |
| B5 |  | 164 nM | 59 nM | 42 nM | 5.81 nM | Kd [6]: 1.23 nM |
| B6 | binds |  |  |  |  |  |
| B7 |  | 25 nM | 3 nM | 3 nM | 1.27 nM | IC50 of inhibition of B cell proliferation, Average of 3 donors [7]: 2.95 nM; IC50 of inhibition of B cell proliferation, Donor1 [7]: 3.06 nM; IC50 of inhibition of B cell proliferation, Donor3 [7]: 3.38 nM; binding result (Human C1q): no binding; Kd [6]: 0.59 nM |
| B8 |  | 50 nM | 6 nM | 4 nM | 0.85 nM |  |
| B9 |  | 83 nM | 13 nM | 6 nM | 0.64 nM |  |
| B10 |  | 35 nM | 5 nM | 3 nM | 0.46 nM |  |
